In US20140294815A1 (NVIP, published 2014):

B1: caninised anti-TNF monoclonal antibody (SEQ ID NO:3 light chain plus SEQ ID NO:5 heavy chain), based on D2E7 (antibody, V domains shown)
VH: not shown
VL: DIVMTQSPASLSLSQEEKVTITCRASQGIRNYLAWYQQKPGQAPKLLIYAASTLQSGVPSRFSGSGSGTDFTLTISSLEPEDVAVYYCQRYNRAPYTFGQGTKVEIKR
notes: canine IgG-B heavy chain, kappa light chain; also called ca-HCB+ca-kLC; caninised (Ca) D2E7 based MAb
B2: caninised anti-huTNF MAb 148 (SEQ ID NO:18 plus SEQ ID NO:19) (antibody, V domains shown)
VH: EVQLVESGGGVVQPGGSLRLSCAASGFIFSSYAMRWVRQAPGKGLEWVAFMSYDGSNKKYADSVKGRFTISRDNSKNTLYLQMNSLRAEDTAVYYCARDRGIAAGGNYYYYGMDVWGQGTSVTVSS
VL: EIVMTQSPASLSLSPGEKATISCRASQSVYSYLAWYQQKPGQAPRLLIYDASNRATGVPSRFSGSGSGTDFTLTISSLEPEDVAVYYCQQPSNWPPFTFGPGTKVDIKR
notes: Expressed in CHO cells and purified by Protein A chromatography; also called ca148-HCB

Assays:
human TNF = molecular target: T1, human TNF (human, UniProt P01375 77-233); test: binding assay of FIG. 12(a) Panel B
T1 construct: also called huTNF

[1] = molecular target: T2, canine tumour necrosis factor alpha (canine, UniProt P51742 77-233); test: ELISA, canine TNFa coated, antibody 5 ug/ml to 0.05 ug/ml
T2 construct: Coated at 5 ug/ml in the ELISA; used at 1 ng/mL in the reporter assay; also called canine TNF; canine TNFa
Experimental: The resultant supernatants were purified on Protein A, analysed by SDS-PAGE (FIG. 10A) and tested for binding to canine TNFa (coated at 5 ug/ml; R&D systems) at the indicated concentrations of antibody (ug/ml) by ELISA and detected using anti-canine polyclonal antibody-horseradish peroxidase conjugate (Sigma A9042) (FIG. 10B). The negative control was the detection polyclonal on coated antigen alone.

[2] = molecular target: T2, canine tumour necrosis factor alpha; test: binding assay of FIG. 12(a) Panel C, compared with the D2E7 based MAbs

T2 sequence (P51742 77-233 limits assumed): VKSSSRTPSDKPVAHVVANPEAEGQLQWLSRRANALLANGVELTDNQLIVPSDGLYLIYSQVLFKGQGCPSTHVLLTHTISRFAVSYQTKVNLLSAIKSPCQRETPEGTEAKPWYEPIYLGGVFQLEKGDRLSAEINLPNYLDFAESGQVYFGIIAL
T1 sequence (P01375 77-233 limits assumed): as the sequence (P51742 77-233 limits assumed) above, with K2R, E21Q, S30N, T44R, I49V, D53E, F83I, T109A, L138R, N140D counted along it

Binder | binding result (human TNF) | binding result [1] | binding result [2]
B1 | binds | binds | 
B2 | binds |  | no binding
